The source of these data is EP1324044A1.

The target in this assay is Fas receptor on primary mouse thyroid follicular cells (TFC) (mouse) (UniProt P25446). Kind of assay: cell-based or functional assay.
Sequence of UniProt P25446 (P25446 22-327): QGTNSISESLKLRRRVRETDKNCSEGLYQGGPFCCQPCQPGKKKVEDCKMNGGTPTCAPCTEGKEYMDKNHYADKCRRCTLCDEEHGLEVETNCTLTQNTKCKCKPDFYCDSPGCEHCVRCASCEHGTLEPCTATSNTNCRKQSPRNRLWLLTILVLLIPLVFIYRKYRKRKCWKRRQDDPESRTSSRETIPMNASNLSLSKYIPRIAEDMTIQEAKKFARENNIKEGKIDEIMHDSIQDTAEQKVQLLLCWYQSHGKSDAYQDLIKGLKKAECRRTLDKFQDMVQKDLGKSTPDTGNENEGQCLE

clone Jo2 anti-Fas antibody: the percentage of proliferation increase of anti-Fas versus control cultures ([3H] thymidine), 48h amounted to 37%; the percentage of proliferation increase of anti-Fas versus control cultures ([3H] thymidine), 72h came to 49%; the percentage of proliferation increase of anti-Fas versus control cultures ([3H] thymidine), 96h was 61%; the proliferation of anti-Fas treated TFC ([3H] thymidine, mean cpm of six wells) lay in the range of 392 to 1510 cpm.
